Tests used:
[1] = target: actin filaments (UniProt P68135)
[2] = target: actin filaments (UniProt P68135); remark: listed apart in the source
[3] = target: actin filaments (UniProt P68135); remark: listed apart in the source

Chain of human β-cardiac myosin motor domain::GFP chimera (P12883 1-787, change not shown): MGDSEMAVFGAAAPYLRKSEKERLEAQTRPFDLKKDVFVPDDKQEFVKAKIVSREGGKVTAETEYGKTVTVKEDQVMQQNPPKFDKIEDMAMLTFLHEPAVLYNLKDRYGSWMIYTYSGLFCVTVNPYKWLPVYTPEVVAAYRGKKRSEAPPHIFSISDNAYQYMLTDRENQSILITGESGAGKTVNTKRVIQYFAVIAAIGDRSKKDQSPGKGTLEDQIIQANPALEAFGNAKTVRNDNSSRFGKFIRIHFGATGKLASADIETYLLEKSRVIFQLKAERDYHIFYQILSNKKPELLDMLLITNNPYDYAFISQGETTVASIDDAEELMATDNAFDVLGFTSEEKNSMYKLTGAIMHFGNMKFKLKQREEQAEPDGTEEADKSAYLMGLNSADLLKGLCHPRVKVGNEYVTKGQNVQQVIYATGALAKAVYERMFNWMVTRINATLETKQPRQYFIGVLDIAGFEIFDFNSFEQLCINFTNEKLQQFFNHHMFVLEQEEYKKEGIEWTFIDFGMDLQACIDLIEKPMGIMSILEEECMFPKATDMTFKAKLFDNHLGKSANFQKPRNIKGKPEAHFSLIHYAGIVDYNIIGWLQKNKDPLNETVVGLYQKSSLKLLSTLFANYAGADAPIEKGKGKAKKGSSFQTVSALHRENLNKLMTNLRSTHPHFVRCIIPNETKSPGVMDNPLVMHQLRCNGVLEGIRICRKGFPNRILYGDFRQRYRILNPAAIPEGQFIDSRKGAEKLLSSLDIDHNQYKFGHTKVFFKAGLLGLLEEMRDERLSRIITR
Chain of human β-cardiac heavy meromyosin (P12883 1-1138): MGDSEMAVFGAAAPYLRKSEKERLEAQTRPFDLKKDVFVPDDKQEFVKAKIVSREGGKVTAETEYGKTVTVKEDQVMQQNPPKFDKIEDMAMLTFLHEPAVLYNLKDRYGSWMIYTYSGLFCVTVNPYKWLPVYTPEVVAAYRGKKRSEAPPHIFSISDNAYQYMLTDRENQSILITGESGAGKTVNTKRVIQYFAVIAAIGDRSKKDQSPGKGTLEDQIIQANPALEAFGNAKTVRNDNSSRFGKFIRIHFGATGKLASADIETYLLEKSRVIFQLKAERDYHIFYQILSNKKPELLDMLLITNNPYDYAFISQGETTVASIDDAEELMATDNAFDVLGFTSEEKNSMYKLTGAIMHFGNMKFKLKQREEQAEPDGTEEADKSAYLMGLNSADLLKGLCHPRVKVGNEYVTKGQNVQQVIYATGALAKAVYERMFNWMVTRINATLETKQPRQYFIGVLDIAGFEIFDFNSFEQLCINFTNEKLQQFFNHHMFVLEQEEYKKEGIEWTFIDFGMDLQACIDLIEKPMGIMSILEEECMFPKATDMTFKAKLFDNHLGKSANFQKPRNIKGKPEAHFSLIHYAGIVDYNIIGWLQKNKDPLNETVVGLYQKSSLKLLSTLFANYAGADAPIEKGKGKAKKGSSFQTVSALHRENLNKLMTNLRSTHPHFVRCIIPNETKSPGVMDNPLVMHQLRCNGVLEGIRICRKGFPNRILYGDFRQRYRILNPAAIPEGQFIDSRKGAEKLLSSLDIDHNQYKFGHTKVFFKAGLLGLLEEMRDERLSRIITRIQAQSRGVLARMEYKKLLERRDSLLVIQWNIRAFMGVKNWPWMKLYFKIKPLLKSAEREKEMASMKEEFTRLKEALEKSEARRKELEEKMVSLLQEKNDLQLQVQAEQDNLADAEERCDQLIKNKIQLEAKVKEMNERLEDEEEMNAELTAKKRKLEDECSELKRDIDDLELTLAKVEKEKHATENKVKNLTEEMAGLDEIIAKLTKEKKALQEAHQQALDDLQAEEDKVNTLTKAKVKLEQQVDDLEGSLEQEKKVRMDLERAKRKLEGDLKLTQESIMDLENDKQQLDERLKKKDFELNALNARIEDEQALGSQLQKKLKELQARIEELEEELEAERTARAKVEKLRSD

Substance	actin filament velocity in the in vitro motility assay (cHMM bound directly to nitrocellulose, 32 °C), without OM and with OM titrated from 0.42 to 12.5 μM; slowed 15–20-fold by OM [1]	sliding actin filament velocity in the in vitro motility assay (cMD held by anti-GFP, 32 °C), without OM and with OM titrated from 0.42 to 12.5 μM; slowed 15–20-fold by OM [2]	K ATPase for actin activation of the steady-state ATPase of the cMD (0.06 μM cMD, 0–100 μM actin), with 100 μM OM [3]	K ATPase for actin activation of the steady-state ATPase of the cMD (0.06 μM cMD, 0–100 μM actin), without OM [3]
human β-cardiac heavy meromyosin (from UniProt P12883 1-1138) (domain or fragment)	0.8 μm s^−1			
human β-cardiac myosin motor domain::GFP chimera (from UniProt P12883 1-787) (domain or fragment)		0.8 μm s^−1	5.4 µM	22.5 µM

Source: publication PMC4918383
